Assay results from publication PMC7527721, “Beyond Toxin Transport: Novel Role of ABC Transporter for Enzymatic Machinery of Cereulide NRPS Assembly Line” (mBio, 2020).

T1: CesD, transmembrane protein of the ABC transporter CesCD (BACTH fusion) (Bacillus cereus F4810/72, UniProt Q20CI6 1-268)
T1 construct: CesD, transmembrane protein of the ABC transporter CesCD, B. cereus F4810/72, NCBI ABK00530.1; also called T25-CesD; source: bacterial two-hybrid (BACTH) fusion, E. coli BTH101; not shown: T18 or T25 fragment of B. pertussis adenylate cyclase (several combinations tested), N-terminal or C-terminal, kept
T1 sequence: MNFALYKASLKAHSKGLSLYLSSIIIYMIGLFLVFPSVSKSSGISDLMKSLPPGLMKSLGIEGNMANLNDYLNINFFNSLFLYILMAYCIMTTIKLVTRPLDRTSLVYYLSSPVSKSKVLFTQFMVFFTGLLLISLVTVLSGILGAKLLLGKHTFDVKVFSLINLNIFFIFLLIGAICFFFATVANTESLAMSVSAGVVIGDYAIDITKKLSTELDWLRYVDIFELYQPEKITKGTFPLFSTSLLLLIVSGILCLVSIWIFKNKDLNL


Experiments:
[1] = molecular target: C-terminal condensation domain C* of CesA (BACTH fusion) (Bacillus cereus F4810/72) (UniProt Q20CI9); experiment: two-hybrid; BACTH in E. coli BTH101, β-galactosidase activity (Miller assay, ONPG, 28°C) of cells from LB-IPTG plates, normalized to the negative control (T18 and T25 alone)
[2] = molecular target: T1, CesD, transmembrane protein of the ABC …; experiment: as above; settings: partners not purified

| Molecule | decrease in β-galactosidase activity against wild-type CesC [1] | β-galactosidase activity, fold of the negative control [2] |
| --- | --- | --- |
| CesC K40M (BACTH fusion) (from UniProt Q20CI7 1-291) (natural protein) | 30% | – |
| CesC, ATPase of the ABC transporter CesCD (BACTH fusion) (natural protein, also called T18-CesC; CesC-T18; source: bacterial two-hybrid (BACTH) fusion, E. coli BTH101; not shown: T18 or T25 fragment of B. pertussis adenylate cyclase (several combinations tested), N-terminal or C-terminal, kept) MIKIEGLTKEFGNGKGIFDVTFEVKQGEVFGFLGPNGAGKSTTIRHLMGFIKPSKGAATINGFDCWKEADQVKKRVGYLPGEIAFPEEMTAYDFIRLIAGMKGMSDLGRAEEFIEKFQLDMRVHIKKMSKGMKQKLAIVAAFLHDPDILILDEPSTGLDPLMQNILVDFILEEKKCGKTILISSHIFDEIKDTADTICIIKNGKIVESGDLKTLKSAQKRYLKAYFTQEVDVELLQRSNLQIEKVENLVATILIQQNINEIMRELMKYDLINVEIMEPEIKDIFIKHYENR | – | ~20 fold |
